Experimental data as given in a protein production outcome set (Wang et al. 2014).

Assay: label from the status in PepcDB records
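Note: failed if final PepcDB status was selected cloned or expressed and not failed if soluble or beyond.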

Sequence	protein production
MAEIYRETEVTVARALRPPVPPKRASWIGTFFGVAADPRTYGALFYMLLSLLTGVFYFTWVVTGASLSVGMLILIIGVPLLVLFFGSVRVLSLVEGRVVETLLGVRMPRRPQHPGLQGGWLQRIGAMFTDARTWSTMLYFLLMLPLGILYFTVFCTLLSLSLGLAASPIAVLFDNVAVLTWDGVDVTSAWLTLPLCVVGVLLLFVTLHLARAFGTLHGMFAKQLLVKGGEAAA	failed
MAEKQYDFTHVPKRQGNSIKWGVLKEKELPMWIAEMDFKIAPEIMASMEEKLKVAAFGYESVPAEYYKAVADWEEIEHRARPKEDWCVFASGVVPAISAMVRQFTSPGDQILVQEPVYNMFYSVIEGNGRRVISSDLIYENSKYSVNWADLEEKLATPSVRMMVFCNPHNPIGYAWSEEEVKRIAELCAKHQVLLISDEIHGDLVLTDEDITPAFTVDWDAKNWVVSLISPSKTFNLAALHAACAIIPNPDLRARAEESFFLAGIGEPNLLAIPAAIAAYEEGHDWLRELKQVLRDNFAYAREFLAKEVPEVKVLDSNASYLAWVDISALGMNAEDFCKYLREKTGLIISAGNGYRGNGHEFVRINLACPKELVIDGMQRLKQGVLNLNN	not failed
MAEKRTLIAVIADEDTTTGLLLAGIGQITPETQEKNFFVYQEGKTTKEEITDKFNHFTEERDDIAILLINQHIAENIRARVDSFTNAFPAILEIPSKDHPYDPEKDSVLKRVRKLFGE	failed
MAELDIGQHCQVQHCRQRDFLPFVCDGCSGIFCLEHRSKDSHGCSEVNVVKERPKTDEHKSY	not failed
MAELNFKAIEEKWQKRWLEAKIFEPNIRDKPKEKKFYITVAFPYLSGHLHVGHARTYTIPDVIARFKRMQGYNVLFPMAWHITGSPIVGIAERIKNRDPKTIWIYRDVYKVPEEILWTFEDPINIVKYFMKAAKETFIRAGFSVDWSREFYTTSLFPPFSKFIEWQFWKLKEKGYIVKGAHRVRWDPVVGTPLGDHDLMEGEDVPILDYIIIKFELRENGEVIYLPAATLRPETVYGVTNMWVNPNATYVKAKVRRKDKEETWIVSKEAAYKLSFQDREIEVIEEFKGEKLIGKYVRNPVSGDEVIILPAEFVDPDNATGVVMSVPAHAPFDHVALEDLKRETEILEKYDIDPRIVENITYISLIKLEGYGDFPAVEEVNKLGIKSQKDKEKLEQATKTIYKAEYHKGIFKVPPYEGKPVQEVKEAIAKEMLEKGIAEIMYEFAEKNVISRFGNRAVIKIIHDQWFIDYGNPEWKEKARKALERMKILPETRRAQFEAIIDWLDKKACARKIGLGTPLPWDPEWVIESLSDSTIYMAYYTISRHINKLRQEGKLDPEKLTPEFFDYIFLEEFSEDKEKELEKKTGIPAEIIHEMKEEFEYWYPLDWRCSGKDLIPNHLTFFIFNHVAIFREEHWPKGIAVNGFGTLEGQKMSKSKGNVLNFIDAIEENGADVVRLYIMSLAEHDSDFDWRRKEVGKLRKQIERFYELISQFAEYEVKGNVELKDIDRWMLHRLNKAIKETTNALEEFRTRTAVQWAFYSIMNDLRWYLRRTEGRDDEAKRYVLRTLADVWVRLMAPFTPHICEELWEKLGGEGFVSLAKWPEPVEEWWNETIEAEEEFIRSVMEDIKEIIEVAKIENAKRAYIYTAEDWKWKVAEVVSEKRDFKSSMEELMKDSEIRKHGKEVAKIVQKLIKERTFDVKRINEEKALREAKEFMEKELGIEIIINPTEDKGGKKKQAMPLKPAIFIE	not failed
MAEQHGDSPVPVELSVVGGFLIAVIVGMLFPADAMTRWMFHPAVVAGCCWAGQLWYVGRKLSVPPAAGNPWRYIFGMANTVTLLRGGLYAVVAGFLVVPATTDLAWVPAACYGVGVVLDKLDGTVARTVGEQTQLGTRLDMAFDTFGFVVAPLVAVFWGQLPVLYLSLSAARYAYVGGIRWRRYRDRPVFERPDSNLGKYLAGVQMVFITAALVPVVPTELVFRLTPVVLAPSLAVFLRDFLVASGRLPREWFDRQR	failed
MAEQMRRVARLFGDWPETIIWTCLEGTMGDIYVDDSQSPQSALALYGRQSFFGFLAGQPHRDLLKICEGKNIILVPQNQAWSDLIEEVYGDGVRFFTRYATKKDTEFDLGHLQKLVDDLPESFDMKLIDRNLYETCLVEEWSRDLVGNYIDVEQFLDLGLGCVILHKGQVVSGASSYASYSAGIEIEVDTREDYRGLGLAKACAAQLILACLDRGLYPSWDAHTLTSLKLAEKLGYELDKAYQAYEWR	not failed
MAERRVALVMADNDYRLVRPLANPIHDGEAMEAALKKLGFEVILETNRDLRRMRRALDDFREDAKGADVALVYFSGHGVEISGDNRLLPVDADASSVDQLDKTSLPLEEVRDAVAATAKVGLIVLDACRSDPFSASSGDGRGATSLTKDVADKVKPGLGRVGRAENILFAFSAAPGETAADGTGENSPFTTALTKYLATDGLEIRSVLTLVQQEVYDLSRGKQLPYVESGLPKLFFAAAAKEQLPERERLLLAMADVTPEMRGEVEQIASDADMPLAPLYGALISSDASHLSADSLNARLREAADAFVKVRSEMKTLASDDPQVAELRRQAEEQLSLGAFDGARALLAKAADIDNVSRQALKVNFASRTLSEAATRFLSGGAARADLDYTTAIGDFETVLSLYGEAGQTSLSLEQADRQSRTLEELGILYTTVGNVEAAGRAFTALLTNLEQRSRQETDPSVKRDLAISHIKLANIKMVQGDLPTSLEHYEAARDMLQDLTASVPDEKSWLGDLAMANDKIGNVLATQGDVGAAAKAYQQSLSIKRKLVDAQPNSASLLRDLTITYDEIGDLARTAGQLDGAQTAFEESLRIRLVLAENKPDPERQRAVSVSHERIGDVLRERGDAAGALVAYSKSQAIAEELVRHDPNDTDLKRDLSISYAKIGNALNDQENWPAALASYQQALAVARELAADDPGNTDWQRDLSVCLEKVAGVLDAQGDIRSALQNYQDSLAIVDRLTKLDPGNSDWQRDLSITLSEIGMLETRQRHFEGSRKAFEASLGIRQKLAQSDPNNAIWQFDLVQAYINYAYVAKDPKAVLTKALNLTLDLDRTGRLAPRDKPTIKYLRGLLAKLNAGKK	failed
MAESTDQTEQLRELAEIGLEGYAPYLMNRIMGRYNANLRKEMTALGLSTAKMRALAILSAKDGLPIGTLGIFAVVEQSTLSRALDGLQADGLVRREVDSDDQRSSRVYLTPAGRAVYDRLWPHMRASHDRMFQGITPQERQAFLATLNKMLANIRVHEI	not failed
MAESTRIGQESRVTLHFALKLEDGNVVDSTFDKQPASFKVGDGNLLPGFEQALFGLKAGDKRTLSILPEQGFGQPNPQNVQIMPRDQFQDMELAEGLLVIFNDAAKTELPGVVKAFDEQQVTVDFNHPLAGKTLAFEVEIIDVQPA	failed
MAETIISLLSPTLDIKSPYYFNPDYLHQFNMHTNTAIDKLSEAKDNYAIWKLRFFDLLQFTNKTGFIDGTLPKPDPSSPYYEPWKQCNAIVLHWLSNTVTDTLQNHVLQAETVHKAWEDLRRIFVPCIDFKIYELRQRLATLRQGGDSVAEYFGKLSKAWLELKAYDPVQECKCGGCDCESEKRATEAREKEQRYAFLMGLNKEFDYVKMKVMHKKIPPSVYQAYEMVVYSEAMMKWKMGGRI	failed
MAEVKTRDEHDEEPPRFDAQAATIAPETILLHPGPAAIVALGGGEALCNALGEPLRPLFSPEAADSLLPEIRSALETGVPQQKVVDVGRDGLPAQFDLIILPTAEPGRVVVIGRDVTLERTLRKALTDSRQRYKDFVDLSIDFTWETGPDGRFVFVSPDGALGYAARDLVGALPWTLMDITDAQSGATVFNSPVRVKDVDIWVRRRDGTLACLKTSSMPVFDASGEWSGGRGVCHDITEQHDRDKALARALNRQRVVANVERTFRDEIDPSNMLNVAAEALARSVGGDGCLIYRAALDDGPDRPFLPRGRFGEGGDEKVVLTLEALGEGAHAQTTPDGKWTVLVAASRYRRQINGAVVLWRRIERGAWSEDDHLLIVDVANQIGSANEQIGQHDRIISMSRTDGLTGLLNRRAFFDDMDRRLKGPPGLVERRAGEEAARRSERPARSALLYIDLDNFKWVNDAHGHLRGDEALMTVRKILTDHTRATDIVARLGGDEFAIWLEGADAEAASAKAAEILAEDALLRPFDGSPDRPLSLSIGLAIHDPASGEGVEDLTARADMAMYAAKHGGKGRFSLSLPPPHTPT	failed
MAFDAARYVHRYYASLAPAPGNEYPRLRAWEYLWEYVWDPSRSWDDLTAPEQLDTTALHLGFYLANWGMFRGSSGLLQNSNLDLMKALARQLFSGAGPELFELSLVDFAGNGARLAHNRKLLETVLGSMDALSSRVSWTDTLKSKILLGVWGEFPALDRHYVAACRALYPRRGLTSVNGGTLTALHRLIGEERLSFPRLETARKGLLYPTGRLADMAFFQYGLENALEHHHHHH	not failed
